For assay [1], the target named is human fibronectin (human) (UniProt P02751). As to the kind of experiment: Scatchard analysis (LIGAND) of 125I-fibronectin binding to coated fibronectin competed by unlabeled fibronectin; low affinity site.
Assay [2] has the same target. The experiment in a line: Scatchard analysis (LIGAND) of 125I-fibronectin binding to coated fibronectin competed by unlabeled fibronectin.
The target is the same in assay [3]. The experiment in a line: Scatchard analysis (LIGAND), fibronectin on coated fibronectin.

“And” between values parts separate entries of the source, which are not always exact repeats. Equal values may be shown once.

As usually defined, the Kd is the concentration at which binding is half-saturated. With human fibronectin (from UniProt P02751), the equilibrium dissociation constant (Kd) in assay [1] came to 800 nM. Moreover, the Kd in assay [2] was 8 nM. Further, in assay [3], the binding sites per 1000 fibronectin dimers, high affinity site (sites per 1000 fibronectin dimers) was 1 and 2; the binding sites per fibronectin dimer, low affinity site (sites per fibronectin dimer) is 1 and 2.

The values above are taken from US5837813.
